Assay results as given in patent publication US5514538A, “Bicarbonate assay and phosphoenolpyruvate carboxylase enzyme from hyphomicrobium” (Genzyme Limited, priority 1990, dated 1996).
Where a name gives a salt, the structure may show the parent alone. Read-outs that look alike come from different tables or passages of the source.

Experiments:
PEPC = test: Effect of calcium and Mg^2+ on PEPC activity; format: biochemical, Hyphomicrobium
Hyphomicrobium PEPC [1] = settings: pH 8.0, 167 mM Tricine buffer + 1 mM MgCl2
Protocol: The effect of bicarbonate on the activity of PEPC was evaluated at pH 8.0 in 167 mM Tricine buffer+1 mM MgCl2.

Hyphomicrobium PEPC [2] = test: Km of Hyphomicrobium PEPC with phosphoenol pyruvate salts; format: biochemical; settings: pH 7.0 and 25° C.
Protocol: The Km's of Hyphomicrobium PEPC were checked with both sodium bicarbonate and phosphoenol pyruvate as substrates.
The result is 0.91 mM for the tricyclohexylammonium salt.

[3] = Specific activity of PEPC (malate dehydrogenase/NADH-coupled assay, A340); format: biochemical
Protocol: (a) Lysis is performed with a solution of Triton X-100, a non-ionic detergent. It is added to resuspended cells (10% w/v) at 1% v/v. Lysis usually takes about 1 to 1.5 hours at 15° to 20° C. Once lysis is complete, the cell debris is removed by centrifugation with the aid of streptomycin sulphate.
(§1) (b) Column chromatography involves the use of a strong anion exchanger such as Fractogel-TMAE, DEAE sepharose, Q sepharose, DE 52 or QA 52.
(§2) For a large volume of enzyme solution, the absorption can be is carried out as a batch up-take. The gel also has a batch wash prior to packing into the column for a gradient elution.
(§3) The gradient is of increasing salt concentration. The active fractions are pooled to give a specific activity of >30 U/mg but some fractions contain enzyme of 60 U/mg protein.
Lyophilised PEPC powder is obtained, having the following characteristics:
A 167 mM Tricine. HCl buffer, pH 8.0, containing 16.7 mM MgCl2
B 20.7 mM sodium bicarbonate in Reagent A
C 217 mM phosphoenolpyruvate in Reagent A
D 10 mM NADH solution, the concentration of which is checked in the following way:
1 Dispense 0.98 ml of Reagent A into a cuvette and zero a spectrophotometer set at 340 nm with this cuvette
2 Add 0.02 ml of Reagent D to this cuvette and mix thoroughly
E 700 U/ml malate dehydrogenase
1 Adjust spectrophotometer to 340 nm and 25° C.
2 Prepare a reagent cocktail as follows:
Into a 50 ml beaker dispense; 46.0 ml Reagent B 1.0 ml Reagent C
This cocktail is stable for 8 hr when stored at 4° C.
3 Dispense 0.94 ml of the reagent cocktail into a cuvette together with 0.02 ml of Reagent D, and 0.02 ml of Reagent E
Incubate the cuvette in the spectrophotometer at 25° C. to attain temperature equilibration and then establish background rate, if any
4 Dilute the enzyme to approximately 1.5 U/ml in reagent A, and initiate the reaction by adding 0.02 ml of this solution to the cuvette
5 Calculate the change in absorbance (ΔA/rain) over the linear portion of the reaction [formula]

[4] = Storage of enzyme on anion exchange gel: recovery and pool specific activity; format: physicochemical
Protocol: as §1, §2, §3
If stored for longer, then the recoveries begin to decrease.

[5] = Stability of reconstituted enzyme with azide; format: physicochemical
Protocol: The enzyme was stored in assay buffer (167 mM Tricine/HCl with 15 mM MgCl2, pH 8.0).

[6] = pH stability of enzyme solutions stored at 25° C.; format: physicochemical
Protocol: For pH 6.0, 8.0 and 9.0, 150 mM Tricine+1 mM MgCl2 was used. For pH 7.0 150 mM bis-tris+1 mM MgCl2 was chosen. Solutions were stored at 25° C.

[7] = Effect of pH on the enzyme activity (buffers and pH changed); format: biochemical
Description: The effect of pH on the enzyme activity was checked by changing the buffers as well as pH values. Once again, at pH 7 Bis-tris was used.

[8] = Effect of temperature on the activity of PEPC; format: biochemical; settings: 167 mM tricine pH 7.0, 1 mM MgCl2
Protocol: The effect of temperature on the activity of PEPC was evaluated. Lyophilised enzyme was resuspended in 167 mM tricine buffer pH 7.0 containing 1 mM MgCl2 at a concentration of 300 u/l. The enzyme was then assayed at the desired temperature using the recommended reagents.

[9] = Effect of pH on the activity of PEPC; format: biochemical
Protocol: The effect of pH on the activity of PEPC was evaluated. Lyophilised enzyme was resuspended (10 mg/ml)) in 167 mM Tricine pH 8.0 (+1 mM MgCl2) and diluted to a concentration of 1 u/ml. The enzyme was then assayed in the following buffer systems. At pH 6.0, 8.0 and 9.0 Tricine (150 mM) was used. At pH 6.5 and 7.0 bis-tris (150 mM) was used.

[10] = lyophilised
Protocol: Stability trials have been conducted on lyophilised enzyme, at 4° C., 25° C. and 37° C.
All recoveries are based on specific activity to rule out weighing errors.

[11] = pH 7
[12] = isolated enzyme
[13] = after anion exchange gradient elution

Which “activation of the enzyme” value (PEPC) does the source give for `[Mg+2]` [Mg^2+] here?
Its value is “only effective activator of the enzyme”.

What about the “activation, chloride vs sulphate” value (PEPC; chloride compound compared with sulphate) of the same molecule?
The value was “works better as the chloride compound than as the sulphate”.

Which Km (Hyphomicrobium PEPC [1]) does the source give for `O=C(O)O` [bicarbonate, sodium bicarbonate] here?
The Km was 1300 µM.

What about the Km (Hyphomicrobium PEPC [1]; read-out: Km (probable, without dissolved carbon dioxide from the atmosphere)) of the same molecule?
The Km was less than 1000 µM.

For `[Ca+2]` [calcium], which “effect on PEPC activity” value (PEPC; low concentrations) is on record?
The value was “inhibitory effect”.

Which Km (Hyphomicrobium PEPC [2]) does the source give for `C=C(OP(=O)(O)O)C(=O)O` [tricyclohexylammonium salt, phosphoenol pyruvate] here?
Its Km is 910 µM.

And the “Km, comparison of PEP salts” value (Hyphomicrobium PEPC [2])?
Its value is “very similar”.

For phosphoenolpyruvate carboxylase [PEPC], which “specific activity of pooled active fractions” value [3, 13] is on record?
The value was greater than 30 U/mg.

What about the “specific activity of some fractions” value [3, 13] of the same molecule?
The value was 60 U/mg protein.

And the Powder activity ([3]; lyophilised PEPC powder)?
Its Powder activity is greater than 10 U/mg.

What about the Specific activity ([3]; lyophilised PEPC powder) of the same molecule?
The Specific activity was greater than 25 U/mg Protein.

What about the “Pool S/A” value ([4]; 0 days stored on gel) of the same molecule?
Its value is 37.4 U/mg.

And the Total recovery ([4]; 0 days stored on gel)?
Its Total recovery is 91%.

And the “Pool S/A” value ([4]; 2 days stored on gel)?
Its value is 33.0 U/mg.

What about the Total recovery ([4]; 2 days stored on gel) of the same molecule?
Its Total recovery is 85%.

And the “Pool S/A” value ([4]; 4 days stored on gel)?
The value was 28.1 U/mg.

And the Total recovery ([4]; 4 days stored on gel)?
The Total recovery was 76%.

And the “Pool S/A” value ([4]; 8 days stored on gel)?
Its value is 26.9 U/mg.

And the Total recovery ([4]; 8 days stored on gel)?
Its Total recovery is 60%.

And the “loss of activity on gel” value ([4]; held on the gel overnight)?
The value was “no loss of activity”.

What about the “% activity recovered” value ([5]; pH 8.0, 4 days, 4° C.) of the same molecule?
Its value is 94%.

What about the “% activity recovered” value ([5]; pH 8.0, 4 days, 25° C.) of the same molecule?
The value was 104%.

What about the “% activity recovered” value ([5]; pH 8.0, 4 days, 37° C.) of the same molecule?
The value was 2%.

And the “% activity recovered” value ([5]; pH 8.0, 7 days, 4° C.)?
The value was 96%.

What about the “% activity recovered” value ([5]; pH 8.0, 7 days, 25° C.) of the same molecule?
The value was 92%.

What about the “% activity recovered” value ([5]; pH 8.0, 7 days, 37° C.) of the same molecule?
Its value is 0%.

And the “% activity recovered” value ([5]; pH 8.0, 14 days, 4° C.)?
The value was 94%.

What about the “% activity recovered” value ([5]; pH 8.0, 14 days, 25° C.) of the same molecule?
The value was 93%.

What about the “% activity recovered” value ([5]; pH 8.0, 30 days, 4° C.) of the same molecule?
The value was 100%.

What about the “% activity recovered” value ([5]; pH 8.0, 30 days, 25° C.) of the same molecule?
Its value is 86%.

What about the “% activity recovered” value ([5]; pH 8.0, 42 days, 4° C.) of the same molecule?
The value was 105%.

What about the “% activity recovered” value ([5]; pH 8.0, 42 days, 25° C.) of the same molecule?
The value was 85%.

What about the “% activity recovered” value ([5]; pH 8.0, 63 days, 4° C.) of the same molecule?
Its value is 105%.

What about the “% activity recovered” value ([5]; pH 8.0, 63 days, 25° C.) of the same molecule?
Its value is 66%.

What about the “% activity recovered” value ([6]; pH 6, 7 days, Tricine) of the same molecule?
The value was 69%.

What about the “% activity recovered” value ([6]; pH 6, 12 days, Tricine) of the same molecule?
The value was 45.5%.

What about the “% activity recovered” value ([6]; pH 7, 7 days, bis-tris) of the same molecule?
Its value is 99%.

What about the “% activity recovered” value ([6]; pH 7, 12 days, bis-tris) of the same molecule?
The value was 78.2%.

What about the “% activity recovered” value ([6]; pH 8, 7 days, Tricine) of the same molecule?
Its value is 81.8%.

What about the “% activity recovered” value ([6]; pH 8, 12 days, Tricine) of the same molecule?
Its value is 67.3%.

What about the “% activity recovered” value ([6]; pH 9, 7 days, Tricine) of the same molecule?
The value was 78.2%.

What about the “% activity recovered” value ([6]; pH 9, 12 days, Tricine) of the same molecule?
The value was 56.4%.

What about the “% activity recovered” value ([7]; pH 6) of the same molecule?
Its value is 65.5%.

And the “% activity recovered” value ([7]; pH 6.5)?
Its value is 74.5%.

And the “% activity recovered” value ([7]; pH 7.0, Bis-tris)?
Its value is 100%.

And the “% activity recovered” value ([7]; pH 8.0)?
Its value is 88.2%.

What about the “% activity recovered” value ([7]; pH 9.0) of the same molecule?
The value was 74.5%.

What about the relative activity ([8]; 20° C.) of the same molecule?
The relative activity was “approximately 10%”.

What about the relative activity ([8]; 50° C.) of the same molecule?
The relative activity was 100%.

And the relative activity ([8]; 55° C.)?
Its relative activity is “approximately 10%”.

What about the relative activity ([9]; pH 6.0, Tricine (150 mM)) of the same molecule?
The relative activity was “approximately 70%”.

And the relative activity ([9]; pH 6.5, bis-tris (150 mM))?
The relative activity was roughly 85%.

And the relative activity ([9]; pH 7.0, bis-tris (150 mM))?
The relative activity was roughly 115%.

And the relative activity ([9]; pH 8.0, Tricine (150 mM))?
The relative activity was roughly 100%.

And the relative activity ([9]; pH 9.0, Tricine (150 mM))?
Its relative activity is roughly 90%.

And the “% activity recovered” value ([10]; 0 days, 4° C.)?
Its value is 100%.

And the “% activity recovered” value ([10]; 0 days, 25° C.)?
The value was 100%.

And the “% activity recovered” value ([10]; 0 days, 37° C.)?
Its value is 100%.

What about the “% activity recovered” value ([10]; 3 days, 25° C.) of the same molecule?
Its value is 95%.

What about the “% activity recovered” value ([10]; 3 days, 37° C.) of the same molecule?
The value was 97%.

And the “% activity recovered” value ([10]; 7 days, 4° C.)?
Its value is 83%.

And the “% activity recovered” value ([10]; 7 days, 25° C.)?
The value was 83%.

And the “% activity recovered” value ([10]; 7 days, 37° C.)?
The value was 87%.

What about the “% activity recovered” value ([10]; 10 days, 25° C.) of the same molecule?
The value was 94%.

And the “% activity recovered” value ([10]; 10 days, 37° C.)?
Its value is 91%.

And the “% activity recovered” value ([10]; 18 days, 4° C.)?
Its value is 92%.

What about the “% activity recovered” value ([10]; 18 days, 25° C.) of the same molecule?
The value was 88%.

What about the “% activity recovered” value ([10]; 18 days, 37° C.) of the same molecule?
The value was 90%.

What about the “% activity recovered” value ([10]; 24 days, 25° C.) of the same molecule?
Its value is 90%.

What about the “% activity recovered” value ([10]; 24 days, 37° C.) of the same molecule?
Its value is 87%.

And the “% activity recovered” value ([10]; 50 days, 4° C.)?
The value was 114%.

What about the “% activity recovered” value ([10]; 77 days, 4° C.) of the same molecule?
Its value is 110%.

What about the stability and activity [11] of the same molecule?
Its stability and activity is “better stability and activity”.

What about the pH profile [12] of the same molecule?
Its pH profile is “broad pH profile”.
